Measurements: patent US20090075374A1, “METHODS OF GENERATING EPITHELIAL LINEAGE CELLS FROM EMBRYOID BODIES AND PLURIPOTENT CELLS” (priority 2007, published 2009)

Experiments:
Format in all cases: cell-based, human
undifferentiated hESCs = assay: Concentration-dependent effect of RA: toxicity; settings: higher concentrations (e.g., 10 μM)
Protocol: In some experiments, K14-positive cells were generated from EBs.
To study the concentration-dependent effect of RA, EBs were differentiated with varying RA concentrations for nine days and subsequently cultured on gelatin in DSFM for nineteen days. […] To study the temporal-dependent effect of RA, RA was added to the cultures at various stages of differentiation (e.g., either during EB induction or during adherent culture in DSFM). […] When exposed to RA, plated cells from control EBs were enriched in neural precursor populations, as confirmed by qPCR analysis.

hESCs [1] = assay: Direct differentiation of hESCs to K14-positive cells; settings: for K14+ yield: subsequent culture in keratinocyte medium, RA+/− cultures
Protocol: For immunohistochemistry, cells were fixed in 4% paraformaldehyde for 15 minutes at room temperature before blocking and permeabilizing with 5% milk in PBS with 0.4% Triton X-100.

hESCs [2] = assay: Direct differentiation of hESCs in N2 medium containing RA, BMP-4 or Noggin: epithelial and neuroectodermal transcripts; settings: six days, BMP-4 inhibition in RA-treated samples
Protocol: For semi-quantitative and quantitative PCR, RNA was harvested from cells using a RNeasy® Mini kit (Qiagen; Valencia, Calif.). cDNA was then generated using Omniscript® RT (Qiagen), 1 μg RNA and oligo-dT primers. For semi-quantitative analysis, PCR was conducted using Platinum® Taq (Invitrogen) with 1 μl cDNA for 30 or 35 cycles. For quantitative analysis, PCR was conducted using Quantitect® SYBR Green qPCR kit (Qiagen) with 1 μl cDNA on an iCycler (BioRad; Hercules, Calif.). Relative expression levels were calculated using the ΔCT method, normalizing to GAPDH transcription. Primers (Table 1) were designed to span intron or bound exon borders, and PCR products were verified by melt curve analysis and/or 2% agarose gel electrophoresis.
BMP-4 synergized with RA in direct differentiation of hESCs to K14^+ cells. hESCs were directly differentiated in N2 medium containing RA, BMP-4 or Noggin (a BMP inhibitor). After differentiation for six days, RNA was analyzed for expression of epithelial and neuroectodermal transcripts. ΔNp63 was elevated in all RA-treated cell samples, regardless of status of BMP signaling.

Molecule | toxicity to undifferentiated hESCs (undifferentiated hESCs) | cells expressing K14 (hESCs [1]; after five weeks of differentiation, subculture in keratinocyte medium) [%] | K14+ yield (hESCs [1]) | effect on RA downregulation of neuroepithelial gene expression (hESCs [2])
CC1=C(/C=C/C(C)=C/C=C/C(C)=C/C(=O)O)C(C)(C)CCC1 [RA, tretinoin (all-trans RA), reference compound] | appeared toxic | 87 |  | 
BMP-4: bone morphogenetic protein-4 (R&D Systems), growth factor of the TGF-β superfamily (protein, UniProt P12644 293-408, looked up) Bone morphogenetic protein 4: SPKHHSQRARKKNKNCRRHSLYVDFSDVGWNDWIVAPPGYQAFYCHGDCPFPLADHLNSTNHAIVQTLVNSVNSSIPKACCVPTELSAISMLYLDEYDKVVLKNYQEMVVEGCGCR |  |  | only slightly affected | 
Noggin: a BMP inhibitor (R&D Systems) (protein, UniProt Q13253 28-232, looked up) Noggin: QHYLHIRPAPSDNLPLVDLIEHPDPIFDPKEKDLNETLLRSLLGGHYDPGFMATSPPEDRPGGGGGAAGGAEDLAELDQLLRQRPSGAMPSEIKGLEFSEGLAQGKKQRLSKKLRRKLQMWLWSQTFCPVLYAWNDLGSRFWPRYVKVGSCFSKRSCSVPEGMVCKPSKSVHLTVLRWRCQRRGGQRCGWIPIQYPIISECKCSC |  |  | decreased | mitigated this effect
